Measured values taken from paper PMC3922039.

Molecular target: Mboumar-9 transposase (T216A) (Messor bouvieri)
Experiment: SEC; analytical size-exclusion chromatography of DNA-free transposase on Superdex 200 at 4 °C; 5.7 uM in 50 uL of 20 mM PIPES pH 6.8, 500 mM NaCl, 5 mM MgCl2, 1 mM DTT; flow 0.5 mL/min

Mboumar-9 transposase (T216A) (enzyme)
stoichiometry N: 2
